Measured values taken from patent US20170176432A1 (OSAKA UNIVERSITY, published 2017).

Tests used:
[1] = molecular target: T1, human β2-glycoprotein I (β2-GPI) (human, UniProt P02749 20-345); test: flow cytometry of surface β2-GPI on 293T; HLA-DRB1*15:01
T1 construct: whole, on cells
T1 sequence (looked up): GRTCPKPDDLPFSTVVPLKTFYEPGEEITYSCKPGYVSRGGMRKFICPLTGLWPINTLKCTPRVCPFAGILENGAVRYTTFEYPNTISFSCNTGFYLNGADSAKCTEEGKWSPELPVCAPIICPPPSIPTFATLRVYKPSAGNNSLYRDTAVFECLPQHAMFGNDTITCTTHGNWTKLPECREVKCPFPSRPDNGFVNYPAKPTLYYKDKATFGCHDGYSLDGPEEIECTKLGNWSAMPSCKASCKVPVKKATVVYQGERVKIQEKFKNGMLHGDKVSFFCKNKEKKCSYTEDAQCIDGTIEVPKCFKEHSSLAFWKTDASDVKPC

human thyroglobulin (TG) [2] = molecular target: T2, human thyroglobulin (TG) (human, UniProt P01266 20-2768); test: flow cytometry of surface TG (anti-histidine antibody) on 293T; HLA-DRB1*15:01
T2 construct: whole, on cells; the tag is not described

human thyroglobulin (TG) [3] = molecular target: T2, human thyroglobulin (TG); test: flow cytometry of surface TG (anti-histidine antibody) on 293T; HLA-DRB4*01:03
[4] = molecular target: T1, human β2-glycoprotein I (β2-GPI); test: flow cytometry of surface β2-GPI on 293T; HLA-DRB4*01:03
[5] = molecular target: T1, human β2-glycoprotein I (β2-GPI); test: flow cytometry of surface β2-GPI on 293T; HLA-DRB1*14:06
[6] = molecular target: T1, human β2-glycoprotein I (β2-GPI); test: flow cytometry of surface β2-GPI on 293T; HLA-DRB3*02:02

T2 sequence (P01266 20-2768): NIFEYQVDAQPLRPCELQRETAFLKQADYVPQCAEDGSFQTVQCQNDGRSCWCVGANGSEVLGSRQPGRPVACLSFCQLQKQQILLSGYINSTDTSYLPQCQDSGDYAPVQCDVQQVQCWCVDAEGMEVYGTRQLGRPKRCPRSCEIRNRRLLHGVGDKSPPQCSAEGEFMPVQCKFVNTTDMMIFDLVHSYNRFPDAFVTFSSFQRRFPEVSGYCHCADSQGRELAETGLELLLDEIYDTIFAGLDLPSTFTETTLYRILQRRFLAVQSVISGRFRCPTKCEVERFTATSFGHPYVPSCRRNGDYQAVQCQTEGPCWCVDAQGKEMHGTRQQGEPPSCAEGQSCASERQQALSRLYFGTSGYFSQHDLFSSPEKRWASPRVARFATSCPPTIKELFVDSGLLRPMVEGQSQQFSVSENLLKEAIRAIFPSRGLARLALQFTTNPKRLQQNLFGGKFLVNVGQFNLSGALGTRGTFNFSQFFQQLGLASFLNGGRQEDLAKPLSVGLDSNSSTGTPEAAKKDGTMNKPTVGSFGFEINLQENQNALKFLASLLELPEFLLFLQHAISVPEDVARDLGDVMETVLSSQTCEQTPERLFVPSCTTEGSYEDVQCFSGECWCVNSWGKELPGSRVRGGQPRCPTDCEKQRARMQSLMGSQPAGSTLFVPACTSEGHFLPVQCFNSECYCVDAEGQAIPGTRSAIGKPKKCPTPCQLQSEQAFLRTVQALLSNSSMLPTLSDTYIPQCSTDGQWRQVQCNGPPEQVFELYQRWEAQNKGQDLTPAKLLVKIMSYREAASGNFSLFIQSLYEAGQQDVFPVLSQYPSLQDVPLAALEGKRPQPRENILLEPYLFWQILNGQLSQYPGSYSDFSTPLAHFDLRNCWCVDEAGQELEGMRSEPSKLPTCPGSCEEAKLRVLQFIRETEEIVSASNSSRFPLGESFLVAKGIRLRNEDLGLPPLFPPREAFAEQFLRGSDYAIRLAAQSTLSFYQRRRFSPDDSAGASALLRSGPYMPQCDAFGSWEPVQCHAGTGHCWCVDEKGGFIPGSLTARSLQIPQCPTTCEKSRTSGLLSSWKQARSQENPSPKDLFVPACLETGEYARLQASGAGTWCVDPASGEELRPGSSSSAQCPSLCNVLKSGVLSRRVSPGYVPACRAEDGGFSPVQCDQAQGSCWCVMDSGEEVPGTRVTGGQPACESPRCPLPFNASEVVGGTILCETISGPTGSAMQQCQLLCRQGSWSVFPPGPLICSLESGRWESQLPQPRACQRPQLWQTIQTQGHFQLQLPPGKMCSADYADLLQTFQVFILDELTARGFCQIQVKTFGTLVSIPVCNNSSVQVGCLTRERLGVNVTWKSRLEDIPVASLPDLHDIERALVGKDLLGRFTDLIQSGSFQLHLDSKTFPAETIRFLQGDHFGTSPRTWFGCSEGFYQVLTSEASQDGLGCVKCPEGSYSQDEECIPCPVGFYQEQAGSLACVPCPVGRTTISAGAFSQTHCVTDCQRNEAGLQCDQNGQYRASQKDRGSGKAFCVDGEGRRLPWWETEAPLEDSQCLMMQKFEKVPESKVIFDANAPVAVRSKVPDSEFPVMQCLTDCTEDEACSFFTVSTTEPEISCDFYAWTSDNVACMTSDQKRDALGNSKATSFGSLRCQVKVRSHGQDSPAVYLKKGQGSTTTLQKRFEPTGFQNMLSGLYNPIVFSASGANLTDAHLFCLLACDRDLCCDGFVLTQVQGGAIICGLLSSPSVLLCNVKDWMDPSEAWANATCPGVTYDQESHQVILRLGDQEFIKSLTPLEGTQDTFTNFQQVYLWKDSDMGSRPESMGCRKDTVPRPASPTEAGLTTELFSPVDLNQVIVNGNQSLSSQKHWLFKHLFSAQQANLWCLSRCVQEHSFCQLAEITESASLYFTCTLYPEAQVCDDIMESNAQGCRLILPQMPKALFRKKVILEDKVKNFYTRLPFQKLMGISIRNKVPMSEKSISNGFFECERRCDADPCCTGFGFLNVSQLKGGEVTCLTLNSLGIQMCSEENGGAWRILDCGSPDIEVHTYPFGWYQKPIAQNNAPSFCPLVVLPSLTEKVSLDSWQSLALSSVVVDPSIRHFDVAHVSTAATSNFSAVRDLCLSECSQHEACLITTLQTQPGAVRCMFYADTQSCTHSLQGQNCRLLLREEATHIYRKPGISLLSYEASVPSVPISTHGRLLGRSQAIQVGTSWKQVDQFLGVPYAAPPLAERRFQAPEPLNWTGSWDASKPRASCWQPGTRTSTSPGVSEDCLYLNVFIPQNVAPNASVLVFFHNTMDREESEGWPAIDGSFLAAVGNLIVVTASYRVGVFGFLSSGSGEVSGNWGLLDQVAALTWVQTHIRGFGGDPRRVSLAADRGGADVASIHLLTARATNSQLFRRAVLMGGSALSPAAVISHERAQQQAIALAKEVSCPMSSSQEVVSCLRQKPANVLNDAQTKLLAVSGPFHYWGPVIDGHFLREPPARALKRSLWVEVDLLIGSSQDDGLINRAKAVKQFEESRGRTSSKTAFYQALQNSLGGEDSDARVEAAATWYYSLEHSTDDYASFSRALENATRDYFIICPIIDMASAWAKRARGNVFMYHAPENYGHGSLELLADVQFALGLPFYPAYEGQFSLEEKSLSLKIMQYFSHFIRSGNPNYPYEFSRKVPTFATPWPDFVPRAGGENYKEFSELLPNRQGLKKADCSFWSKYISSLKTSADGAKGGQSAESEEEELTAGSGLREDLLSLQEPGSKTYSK

B1: HLA-DR (HLA-DRA*01:01/HLA-DRB1*15:01) (other, human)
MHC II alpha: not shown
MHC II beta: not shown
notes: whole, on cells; also called HLA-DR15
- binding result [1]: binds
- binding result (human thyroglobulin (TG) [2]): binds

B2: HLA-DR (HLA-DRA*01:01/HLA-DRB4*01:03) (other, human)
MHC II alpha: not shown
MHC II beta: not shown
notes: whole, on cells; also called HLA-DR53
- binding result (human thyroglobulin (TG) [3]): binds
- binding result [4]: binds

B3: HLA-DR (HLA-DRA*01:01/HLA-DRB1*14:06) (other, human)
MHC II alpha: not shown
MHC II beta: not shown
notes: whole, on cells
- binding result [5]: binds

B4: HLA-DR (HLA-DRA*01:01/HLA-DRB3*02:02) (other, human)
MHC II alpha: not shown
MHC II beta: not shown
notes: whole, on cells
- binding result [6]: binds
